The target in the test is T1, Pf Cmr2dHD (Pf1129), HD-domain-deleted Cmr2, N-terminally poly-histidine tagged (Pyrococcus furiosus, UniProt Q8U1S6 213-871).
T1 sequence (looked up): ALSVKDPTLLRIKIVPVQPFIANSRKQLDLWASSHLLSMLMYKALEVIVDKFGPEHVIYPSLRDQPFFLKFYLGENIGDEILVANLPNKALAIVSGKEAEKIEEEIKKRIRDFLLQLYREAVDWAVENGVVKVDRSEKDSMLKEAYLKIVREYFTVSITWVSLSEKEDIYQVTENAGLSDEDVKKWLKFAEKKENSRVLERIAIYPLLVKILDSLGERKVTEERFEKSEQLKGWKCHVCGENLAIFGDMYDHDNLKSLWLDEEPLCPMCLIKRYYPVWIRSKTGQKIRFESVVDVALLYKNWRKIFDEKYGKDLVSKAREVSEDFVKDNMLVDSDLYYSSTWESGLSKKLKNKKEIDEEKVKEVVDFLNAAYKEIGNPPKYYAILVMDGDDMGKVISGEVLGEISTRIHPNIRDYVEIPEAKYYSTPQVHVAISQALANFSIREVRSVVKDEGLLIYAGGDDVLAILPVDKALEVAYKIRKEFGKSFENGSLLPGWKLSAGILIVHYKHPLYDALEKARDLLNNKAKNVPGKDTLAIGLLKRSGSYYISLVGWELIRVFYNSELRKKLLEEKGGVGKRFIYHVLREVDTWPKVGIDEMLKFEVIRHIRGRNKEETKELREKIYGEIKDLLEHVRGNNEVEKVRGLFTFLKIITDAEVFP
The experiment in a line: crystal structure.

B1: Pf Cmr3 (Pf1128), untagged (natural protein, Pyrococcus furiosus)
chain: MIEVTFTPYDVLLFRESRPFDAGSESVARSIIPLPQTVAGAIRTLLFYKGLKNCVGVGEEEPEFTLVGIAIGTEKGRIYPLPFNIIKSEKFYKVVNPGRFLGKLILPPKGKYKSGYVTESILEKYLKGELKEVEENKVIRIEKEKRIGIKLSREKKVVEEGMLYTVEFLRIEKIYAWIEDPGCGIKDILSSYEFLTLGGESRVAFVEVDDKTPDIFNRELGSTKKALFYFSTPTIGKVGEIVQELEKRLNAKIDDYLLVSSRPTAISGWDMHEKKPKGTKFAIPPGSVLFVEFKEEVEVPPYIKLGKLKKLGYGLALGGIWE
For B1, the “stoichiometry N” value is 1 Cmr3:Cmr2dHD.

The record behind these values is PMC3606058 (Structure (London, England : 1993), 2013).
